For 19 sequences, protein production results are on record in a protein production outcome set (Wang et al. 2014).

A short description of this data set: label from the status in PepcDB records.
Consider “MDLFNAPIAPLQVLHDQQGGVRYWPHLLPPALAQEAFDALRDDADWRSQRREMYDRVVDVPRLLASYRLDDALPAGLPLQRLLDAVQAVLPAPYNAVGLNLYRDGRDSVAMHHDALHTLVAPHPIALLSLGTPRRMQLRAKDGSTRAVALELAPGSLLAMSHASQHTHVHGIAKSTRAVGERISVVFRVRPAQRMAAGQHGPHWEPVQS”, for which the protein production result was “failed”. Next, “MPTLGFRFRAHTDEQTLRALKAQLKLACEVYNTLRWADIYFYQRDGKGLTQTELRQLALDLRKQDDEYKQVYSQVVQQIADRYYEARQRFFEGLARFPKEKKPHKYYSLVYPQYGWKILQVREIRKGSKKKLITLKLSNLGVFKVIVHRDFPLDKVKRVVVKLTRSERIYITFVVEGYEFPKLPNTGKVVAIDVGVEKLLVTSDSEYFPNLRPLEKALWKVKHLHRELSRKKFLSNNWFKAKVKLARAYEHLKNLRTDLYMKLGKWFAEHYDVVVMEDIHVKQLIGKSLRSLRRRLSDVAFSELRDLIKYQLEKYGKKLILVNPAYTSKTCARCGYVKEDLSLSDRVFVCSNCGWIADRDYNASLNILRGSGSERSLVPVELRPLPVPALRYWHGRAVKLEHHHHHH”: “failed”; “MVWPFKSKFRKQIARIEITGAIASGTRKRVLEALKTVEERKFPALLLRIDSPGGTVGDSQEIYSALKRLREKIKIVASFGNISASGGVYIGMGAEHIMANPGTITGSIGVILRGNNLERLLDKIGVSFKVIKSGPYKDILSFDRELTEPEQDILQELIDTSYQQFVQTVAEGRSLAVDKVKSFADGRIFTGQQALELGVVDRLGTEEEARRWTAELVGLDPEKTPCYTLEERKPLLSRVLPGSRKGYSRLGASIDWLEFEMSTSGLPLWLYRP”: “failed”; “MLNPRIKWSSRKFGNLFDVILHLFFSDTFLFKEIPVDVDQLLVTWDGKLVSCLPTGTRGNYLCKVSSPPGVHRVSVEVIYGGRRIVKTENVPLIDFDISLSLDKNSLLVKLLGYSDPDTISVKLNGTPLTPSRIGPGEYRVDITERGVAEVEVCISGICKRSIINVEPHLSLSDWDPSVWVGRNLYGYQVMEFLGEGGFSYVMKASSPGGVVALKIPKLTQSPASGLTRNVINVLDDLFKEQSALLELSDSPYLVKLVGVHLDRDSVRRALTEPRYYLEYPPMIVMEFMAGGSVSRLVKDDVQFYSDNWKTAVFMIISRISSGLLKIHEKGYVHCDVKPSNILLDREPPPTAGELYERMKRREVNPKLADLGSAVKIGGVPPGVTLEYSSLEQVTSTRYGGVNPRDDVYSLGATIYYLLTKRYLNSPMIPFMEKALGGGGLDNSVYALRDYSTLEAVGLDSKIVRFIKDMTSENRDKRPSSLEVFNFFTSLVN”: “failed”.

With “AAQGFVFNLDNPIFKDRRVREALSLLWDFDWINRRVMRNFYVREQSYFPKSDMAATELPTPAELKILEPLRGQVPDEVFTTVYQPPKTDGSGYIRDKQLQALKLLAEAGWHPKNNKLVNAAGEPMVFSFLDGQGGFDRLILPFKRTLAQIGITLDFLRIDSAQYINRLNARDYDMIVVSLPKNGNPIISPGRELYNLYGSQSATEVGSSNAMVLRNPAVDTLIDGLVSANTRNDMVLYARALDRVLQWGYYMIPNYYSK”, the protein production entry is recorded as “failed”. As for “MAEQEDIILEKPEDGLNQPRLDESLEGFKGQEGQAPEDEEFASLPEELPQENSESGFKFTRESAPEDVSTFEEVESQEPTPWYKDRKFMSLVGLSLGIICILVFTLFYLTFSEGKIKPDIIASKPLEQPVIMPDESYKYNDMQRIDGMIQKANALYLKGEVEQALKVYEQVAVYNESLSNYNLGVSQMNENKFQEAFESFKKAIANGENQSVAAINAAVCALKLNDKEKFRYYIDLAQVYLPKEGKSKLYDYYLSLINYYKGYYPEALQMLQRTDVEPYSDVAKYLSAKIYAKMDFDSKAIQQLNSQGNFESSLSLGLLYARIGEYAKAKVALSTAMKIERDFNQSLAALTLVDIKTGNYQDMLARLQNSYDNDKDRYKILDTYKIQVRLNKDLFNIAVAQNSFSKDLLKKQKDQFDLLFYFAPYQVFDSKQAALYIKKANVTDFVDDSTDAGIYLNISKALSSTNVKIANIINYALNQKLRLANQEFQKLIKDYPEHSILHYNLALTYAQMQNYELAYKHFSSSYHLNPKNYLAGAFAMFCAKLIDIDTTKLYNEILDNIAADSNFKANMQKSMLFLVNNNYISMLPYLDETKKDTPLSLIFEAIVAKNNNLNNQVDVKIAKLRSELPEDILANILYFNSLNSNLNIKEYAQNAQIHFKNLKLDYRSVFGGPNIAREFYVNLMHIAGLLNLERQKFKELINVSGAKDEGILQTLAYLDIFAQQYEEAYALYNSLIDDYGAKDTKTLFLAAVAAVGANNPNSAIALLQLSKLTDKNNKESKAALGMLYQEVKNYEAAISQYKTLPNNFKSEFFTFDINNN”, the entry is “failed”; as for “MIKLIHNANIVLEDMILENGHLIIEGDTIKKVSNDKIDYAFDFNEIDEIIDAKNLYVIPGIIDIHSDAIEKEIEPRPSTLLPFNMAFYELDKKLPANGITTVYHSISLGDGVGVRSIDNSLKMIKNIDSYKNIDSKSINHKVHLRYEVLYYEGLEKVLELLDENKIDYLSIMDHSPGQGQYTNPTFYKEYATKVWGVTENYVDTWLDDLVNLHDNLDWNKIANIIGIAKTKNINVASHDDDTLEKMDFIKNIGINVSEFPITLEVAKHSKKLGVLTCLGAPNIVRGKSHNNNLKAMDAILEDCCDIVCSDYLPSAMIKSMCIVAERINNLNKAVSLFTSNPAKAVGIYDERGSIKENKKADLVLVDIDSEYPKVVNTIVNGKTVYKREV”, “failed”. As for “MTDPADRPLIERIRACRLCADRFAATHTAHEPRPVVWFRPGARLLIAGQAPGARVHASGRPFTDPSGDRLRDWLGIGEETFYDRSRVAVVPMAFCFPGYNSQGADLPPPPVCGKTWHNQVMGELGEMPLSVLVGGHALKYHLGARSPVTETVAAWRDHAPRVFALPHPSWRNTGWLRKNPWFEAELLPVLRARVKEVLNEPDRSANPD”, the entry is “failed”; as for “MAPVKLYMVEVIDKKEIAANERRSRENDVTGPEITHYYQVTFRLTTDDRKDLVLNIDKSSYQNIEPEMKGRLFMQGSRFVQFETDVPIDEQKLEHHHHHH”, “not failed”; as for “MDNKVILVGGFHEIIELCEDNDIEIAGIIDNYLTNDTYWGYPIIGTDDKAKVLFETYKNVPVLITPDVPHVRYKLYHYYKSIGFQVASLISRDASISRSAIIGEGTIIQRGANLSSNIKIGQMVKVNTNANIMHDCLIGNYVTVAPNAVLLGKVEIDDKAYIGANATLLPSVKIGENVTVGAGSVVTKSVRPNTVVKGSPAK”, “failed”.

On to “MGKSDFIKVNVSNSHNDAVAFEVKLAKDLTVAQLKTKLEILTGGCAGTMKVQVFKGDTCVSTMDNNDAQLGYYANSDGLRLHVVDS”, for which the protein production result is given as “not failed”. Next, “MVQVPPPPPTGFADHASAAEDREAGDGPAPSIAEGLSAALFQSVVEALPVGTALLRDGVIVHANATLAGQIGETIDTLIGSPLTSYLTPADALAVQKVVEGAIALHGGVPVRRIAHIRHISGSERVYSLRFSPLDNGPHPLLVVITRDMTAQVAAENALRAAEGKYRAIFENAVEGIYQSTPDGTYLDVNPALARIYGYASPAELIAHFTDIASQLYVDGTKRGEFQRLMRETGEVRDFTAEVWRCDGHTIWITENARCVRGPDNEVLYYEGTVEDITAQRQSQETMRLLGKVFTSIAEGIVLLERDLTVRTVNPAFEAMTGLLRQDMEGRPARLFASGLHENDFLATVAAEVDRAGLWRGEIWGERREGPPYSGEMTVTAVRTRAGETTHYVAAITDITKRKRDEEHIRFQANFDMLTHLPNRHLIMDRLEQAMHQAQRTGRQVCVMFLDLDRFKQINDSYGHSAGDEVLKLTARRLRNCVRISDSVGRLGGDEFIVILSNVEDQHAGAYIAEKILYSLSEPFPIGGTEVFCIPSVGITYFPDHGETAPDLLRNADVAMYHAKQGGERRYAIFTPDMARRSLALLTMESDLRHALARDEFELHFQPKVRADLTLIGAEALIRWRHPEKGLINPGDFIPLAEESGLILPIGRWTLREACDRVMSWRAEGLTIPSVSVNVSPRQFQDQTLVETVRQILVETGLEPEALDLEITETVMTGDVEHAVGTLRALKDLGVTLSIDDFGTGYSSLNYLKTFPIDTLKIDQTFVRDVLHSGKDAAIVSTIIALARNLGFSVVAEGVEEIEQAEFLGSRDCQNFQGFLYSRPLPPAEFTTFLRTAKLETATPPDLVPSIAPGP”: “failed”. Next, “MLTDALLAFLHFTAIFVLVTLMAAEAVVLRPDMPPSAVRRLSQYDFFYFLSAMVVLATGLLRLFYGAKGVDFYLHNPWFHAKITVFVLIALATLPPTFAFARWRKQSLKLPEFVPTPAEIKKVRRWVMIEAHAFILLPLCAVMMARGIGIH”: “failed”. Next, “VAITDNRGVITHVNEKFCDISQYEYYELVGTTHKIINSGFHPRSFFKQMWKTIAQGNIWKGEICNRTKQGKLYWVDTTIVPLKDNDGLLKNYISIRTDITQ”: “failed”; “MKQKFSSLFVLLVLLLTGLQVSAQSTPKPFDIEQPSLRVFLPAPELATGRAVVACPGGGYSGLAVNHEGYDWAPYFNKQGIALIVLKYRMPKGDRTLPISDAEAAMKMVRDSADVWNLNPNDIGIMGSSAGGHLASTIATHAPEALRPNFQILFYPVITMDKSFTHMGSHDNLLGKDASADLEKEFSNEKQVTKETPRAFIVYSDDDKVVPPANGVNYYLALNKKGVPSVLHIYPTGGHGWGIREDFLYKSEMQNELTSWLRSFKAPRKDAVRVACIGNSITFGAGIRNRSRDSYPSVLARMLGDSYWVKNFGVSARTMLNKGDHPYMNEPAYKNALAFNPNIVVIKLGTNDSKSFNWKYKADFMKDAQTMIDAFKGLPSQPKIYLCYPSKAYLTGDGINDDIISKEIIPMIKKLAKKNDLSVIDLHTAMDGMPELFPDRIHPNEKGAQVMAKAVYQSISTLK”: “failed”; “MSQMSPGQARVVDPILSTHARGYRQSTLIGKKLFPVAPVAQYGGKILTFGKEAFRLYNTKRAPGANTKRIDFGYEGDPYSIVPSALEAKVPRELMRDASQVPGIDLGARSVNTVLRIMALAHEHECAQIALDPAKYNADHKVKLVGSARWTSPDSDPTKDVETAKEAIADSIGMEPNRLMLSRKALSACKYHPKLIERVKYTRAESITIDMLKALWEVEEIVVGTARVATGANDSFGDVWGPDVWLGYVSDNPDPSVEEPSFGYTYQIEGHPLVEVPYWDNNAKSWIYGVSDDNTPALSGMLAGYLIEDAGLPAA”: “not failed”. On to “MIRMTVKVPHPLRVVAVSGGMQRPSKSVALAEHLLALIAEQLPCERHLVEIGALAPQFAGAPWRSHLPGSVEQALALVEQADVLVVATPVYRGSFTGLFKHFFDFIDQDALVDTPVLLAATGGSDRHALMIDHQLRPLFSFFQARTLPLGVYATDRDFLDYRVHSQALAERASLAVQRALPLIELTRHARSITAQNVAAA”, for which the protein production result was “failed”.

With “MNAIGLVGFAFVGAAKAIEERYDVFGVTVVGVMTALGGGTTRDLLLNRVPNSLQSPGEVALSLLGVTAAVLFVHFLDDGHQHPVVLTADAIGLAAFTTTGALLGQQAGLPVFAVVALATVNAAGGGAISDLLLGRTPFILREDFYASCAVIGGLAFWALAQIGVSVSVASAGCALAVLLARGLGIGRGWSLPTVQAWERRDAQ”, the protein production entry is “failed”.

With “MIKNDGKMMRVRIAKERSDLCDLTAAAIKATYNTRNPCEVERCIDVLNHLKSLSLSVKDIRLSESIVKLETLRSHRNPRIRKEAQALFHSWLKTFYAHGSDNSFTAALTKDRLKMKKHVLKMCSELKKKEEPGTMARQVTAFSVLKNKEDERSQTTVEAVESKTTIKLSELNRKEDQRSLTRETEKNKARNSFLALKQKEDHRSETCVEKYFKKETKTNLKQLNMKTRRVSLEDVTTKKPHEDGSLIKKTKTEKELKKKKVDEMVKLFEAAKKAADVANAKGVLSGKPEVSRCIDALSLLMKINITPKPKEPRRMMDKLEGLTKHKDRKICHVASALLHLWRQRIREQERKKSVTKASSKTRKLSYVKIIWLEQIKVSCGFKRF”, the protein production result is listed as “failed”.
